Our source for the binding efficiency in comparison to the full-length immunogenic peptide P1 (%) values is patent US20260227403A1.

The target of test [1] is peptides with further truncation from the N-terminus and C-terminus (beyond P40 and P38). The test is described as follows: ELISA, 1 µg truncated peptide per well, 20 ng/mL mAb. (An ELISA detects its analyte on a solid surface through an enzyme-linked reagent.)
Test [2] addresses peptide P40 and peptide P38. The test is described as above.

B1: ETV1 rabbit monoclonal antibody (29E4) (antibody, V domains shown)
VH: QELEESGGDLVKPGASLTLTCTASGFFFSAENHICWVRQAPGKGLEWIGCVYIGSYVGGSGDPYYASWAKGRFTISKTSSTTVTLQMSSLTAADTATYFCARDLGSLWGPGTLVTVSS
VL: DVVMTQTASSVSAAVGGTVTIACQSSQSVYDNNNLAWFQQKPGQPPKRLIYSASTLASGVSSRFKGSGYGTQFTLTISDVQCDDAATYYCVGAFSGYIFVFGGGTEVVVK
Turning to B1, the binding efficiency in comparison to the full-length immunogenic peptide P1 (%) in test [1] is 75%; in test [2] it was 80 to 100%.
